Consider one molecule from patent publication CN114480298A (MEGEE TRANSF MEDICAL RESEARCH SUZHOU CO LTD, dated 2022).

In test [1] the target is T1, TF-TIGIT融合蛋白 (原核表达) (human (TIGIT part)).
T1 construct: also called TF-TIGIT蛋白; 原核表达的TF-TIGIT蛋白
T1 chain: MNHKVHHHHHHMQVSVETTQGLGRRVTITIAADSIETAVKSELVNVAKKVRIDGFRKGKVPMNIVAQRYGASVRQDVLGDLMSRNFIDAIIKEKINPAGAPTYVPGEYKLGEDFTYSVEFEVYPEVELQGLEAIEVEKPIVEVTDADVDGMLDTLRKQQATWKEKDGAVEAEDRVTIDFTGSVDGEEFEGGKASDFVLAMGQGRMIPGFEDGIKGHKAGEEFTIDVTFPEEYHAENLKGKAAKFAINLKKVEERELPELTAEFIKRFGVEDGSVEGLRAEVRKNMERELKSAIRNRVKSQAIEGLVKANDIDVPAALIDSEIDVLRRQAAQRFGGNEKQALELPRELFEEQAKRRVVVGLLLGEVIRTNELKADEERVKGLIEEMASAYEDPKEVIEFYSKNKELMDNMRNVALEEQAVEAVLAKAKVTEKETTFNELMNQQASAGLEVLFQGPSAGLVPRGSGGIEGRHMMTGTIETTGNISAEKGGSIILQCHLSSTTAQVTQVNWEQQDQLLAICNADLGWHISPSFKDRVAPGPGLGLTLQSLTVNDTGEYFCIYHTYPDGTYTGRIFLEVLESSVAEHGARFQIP
Nature of the test: Western blot, 0.2 μg antigen per lane, primary antibody 0.2 µg/mL. For orientation: In western blotting, separated proteins are transferred to a membrane and probed.

For test [2], the target named is T2, 人TIGIT (人体组织细胞膜上表达的TIGIT蛋白) (human, UniProt Q495A1 22-244).
T2 construct: whole, on cells
T2 sequence (looked up): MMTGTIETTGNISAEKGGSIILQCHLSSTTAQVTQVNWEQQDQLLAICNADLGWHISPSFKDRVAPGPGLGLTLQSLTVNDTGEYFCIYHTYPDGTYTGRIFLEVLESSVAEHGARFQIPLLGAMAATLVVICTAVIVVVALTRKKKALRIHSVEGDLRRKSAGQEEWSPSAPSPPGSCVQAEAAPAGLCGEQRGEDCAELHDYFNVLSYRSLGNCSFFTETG
Nature of the test: immunohistochemistry on FFPE human tissue, primary antibody 3.5 μg/mL.

B1: 抗TIGIT单克隆抗体MJ12-30 (antibody, mouse IgG1, kappa, V domains shown)
VH: EVKLEQSGGVLVQPGGSRKLSCAASGFTFHSFGMHWVRQAPEKGLEWVAYISSGGSTIFYADTVKGRFTISRDNPKNTLFLQMTSLRSEDTAMYYCAGSDHGNLGYWGQGTTLTVSS
VL: DIVLTQSPLSLSVSLGDQASISCRSSQSILHSGGNTYLDWFLQRPGQSPKLLIYKVSNRISGVPDRFSGSGAGTDFTLKISRVEAEDLGVYYCFQGNHVPPTFGGGTKLEIKR
notes: full chains used here; also called 鼠抗人TIGIT单克隆抗体杂交瘤细胞系MJ12-30 (CGMCC No.45102) 分泌的抗体
On to B1, for which the binding result in test [1] and in test [2] was “binds” each time.
